Data reported in patent US7815907B2, “Antibodies to insulin-like growth factor I receptor” (Amgen Fremont Inc., priority 2001, dated 2010).

Legend:
[1] = target: T1, IGF-IR (Homo sapiens, UniProt P08069); test: IGF-IR levels in 3T3/IGF-IR tumors by western blot after antibody and/or adriamycin; format: in vivo, nude mice; design: expressed in transfected cells; host or cells: NIH-3T3 (mouse fibroblasts); details: 72 hours after single 250 μg 2.13.2 i.p. or 7.5 mg/kg adriamycin i.v.
Protocol: Tumors were induced in nude mice as described in Example IX. Mice with established subcutaneous tumors of approximately 400 mm^3 were treated with a single injection of 250 μg 2.13.2 antibody (i.p.) or with 7.5 mg/kg adriamycin (i.v.), either as single agents or in combination, as described in Example IX. 72 hours after administration of the agents, tumors were extracted as described in Example VIII, and equal amounts of the tumor extracts were subjected to sodium […] polyacrylamide gel electrophoresis (SDS PAGE) and western blot analysis using the anti-IGF-IR antibody SC-713 (Santa Cruz). […] Each lane represents equal amounts of protein from individual tumors from individual mice.

[2] = target: T2, extracellular domain of IGF-IR (Homo sapiens, UniProt P08069); test: BIAcore affinity measurement, Protocol 1; format: binding; details: BIAcore 3000; antibody captured on protein-A, IGF-IR extracellular domain injected
T2 construct: Different concentrations of the extracellular domain of IGF-IR were injected on the sensorchip
Protocol: We performed affinity measures of purified antibodies by surface plasmon resonance using the BIAcore 3000 instrument, following the manufacturer's protocols.
To perform kinetic analyses, protein-A was immobilized on the sensorchip surfaces of the BIAcore. The sensorchip was then used to capture the anti-IGF-IR antibodies of the present invention. Different concentrations of the extracellular domain of IGF-IR were injected on the sensorchip and the binding and dissociation kinetics of the interactions between the anti-IGF-IR antibodies and the extracellular domain of IGF-IR were analyzed. The data were evaluated with global fit Langmuir 1:1, using baseline drift models available on the BIAevaluation software provided by BIAcore.

[3] = target: T3, extracellular domain (ECD) of IGF-IR (Homo sapiens, UniProt P08069); test: BIAcore competition (epitope mapping); format: binding; details: first antibody bound under saturating conditions
T3 construct: Different concentrations of the extracellular domain of IGF-IR were injected on the sensorchip
Description: We conducted BIAcore competition studies to determine whether the antibodies of this invention bind to the same or distinct site on the IGF-IR molecule. We bound the extracellular domain (ECD) of IGF-IR to a BIAcore sensorchip as described above in Example II. We bound a first antibody of the invention to this sensorchip-bound IGF-IR under saturating conditions. We then measured the ability of subsequent secondary antibodies of the invention to compete with the primary antibody for binding to IGF-IR.

[4] = tested on: IGF-IR from the marmoset; test: Species crossreactivity by immunoprecipitation/Western blot; format: binding; details: immunoprecipitation, antibody 1 μg/ml
Protocol: (§1) To perform immunoprecipitation experiments, we plated cells in DMEM high glucose media supplemented with L-glutamine (0.29 mg/ml), 10% heat-inactivated FBS, and 500 μg/ml each of geneticin, penicillin and streptomycin to 50% confluence in T25 flasks. We then added 100 μl of an antibody of the invention in Hank's buffered saline solution (HBSS; Gibco BRL) at a concentration of 1 μg/ml. We incubated the plates for 30 minutes at 37° C. in an incubator and then stimulated the cells with IGF-I at 100 ng/ml for 10 minutes at room temperature. We lysed the cells in RIPA buffer (Harlow and Lane, supra) and immunoprecipitated IGF-IR with 2 μg of pan-specific SC-713 anti-IGF-IR antibody (Santa Cruz) plus protein A agarose beads for 1 hour at 4° C. We pelleted the beads and wash three times with PBS/T (PBS+0.1% Tween-20) and then boiled the beads in 40 μl Laemmli buffer containing 5% βME.
(§2) The samples prepared as described above were then analyzed by Western blot. We loaded 12 μl of each sample per lane on 4-10% gradient Novex™ gels run with 1×MES buffer (Novex™). Gels were run at 150V for 1 hour or at 200V for approximately 30 minutes. We then transferred the gel to a membrane in Novex™ transfer buffer with 10% methanol either overnight at 100 mA or for 1-1.5 hours at 250 mA. We then allowed the membrane to dry completely and blocked at room temperature with TBS (Tris-buffered saline pH 8.0) containing Superblock (Pierce Chemical Co.). We added the IGF-IR blotting antibody SC713 (Santa Cruz) to detect immunoprecipitated IGF-IR.

[5] = tested on: rabbit IGF-IR; test: as above; format: binding; details: immunoprecipitation, antibody 1 μg/ml
Protocol: as §1, §2

[6] = tested on: canine IGF-IR; test: as above; format: binding; details: immunoprecipitation, antibody 1 μg/ml
Protocol: as §1, §2

[7] = tested on: guinea pig IGF-IR; test: as above; format: binding; details: immunoprecipitation, antibody 1 μg/ml
Protocol: as §1, §2

[8] = tested on: Rhesus IGF-IR; test: as above; format: binding; details: immunoprecipitation, antibody 1 μg/ml
Protocol: as §1, §2

[9] = target: T1, IGF-IR; test: as above; format: binding; design: on cells from a variety of animals; endogenous in cells; details: immunoprecipitation, antibody 1 μg/ml
Protocol: as §1
(§3) The samples prepared as described above were then analyzed by Western blot. We loaded 12 μl of each sample per lane on 4-10% gradient Novex™ gels run with 1×MES buffer (Novex™). Gels were run at 150V for 1 hour or at 200V for approximately 30 minutes. We then transferred the gel to a membrane in Novex™ transfer buffer with 10% methanol either overnight at 100 mA or for 1-1.5 hours at 250 mA. […]

[10] = tested on: COS7 IGF-IR; test: as above; format: binding, old world monkey; details: immunoprecipitation, antibody 1 μg/ml
Protocol: as §1, §3

## COc1cccc2c1C(=O)c1c(O)c3c(c(O)c1C2=O)C[C@@](O)(C(=O)CO)C[C@@H]3O[C@H]1C[C@H](N)[C@H](O)[C@H](C)O1 [adriamycin, reference compound]
[1]
  IGF-IR levels in tumors, single agent: little effect on IGF-IR levels

B1: 4.17.3: human IgG2κ monoclonal antibody specific for IGF-IR from hybridoma 4.17.3 (ATCC PTA-2793); named as activating antibody (antibody, V domains shown)
VH: PGLVKPSETLSLTCTVSGGSISSYYWSWIRQPPGKGLEWIGYIYYSGSTNYNPSLKSRVTISVDTSKNQFSLKLSSVTAADTAVYYCARTYSSSFYYYGMDVWGQGTTVTVSS
VL: GDRVTITCRASQSISTFLNWYQQKPGKAPKLLIHVASSLQGGVPSRFSGSGSGTDFTLTISSLQPEDFATYYCQQSYNAPLTFGGGTKVEIK
[2]
  Kd: 13 nM

B2: 2.14.3: human IgG2κ monoclonal antibody specific for IGF-IR from hybridoma 2.14.3 (ATCC PTA-2790) (antibody, V domains shown)
VH: GPGLVKPSETLSLTCTVSGGSISNYYWSWIRQPAGKGLEWIGRIYTSGSPNYNPSLKSRVTMSVDTSKNQFSLKLNSVTAADTAVYYCAVTIFGVVIIFDYWGQGTLVTVSS
VL: SSLSASVGDRVTFTCRASQDIRRDLGWYQQKPGKAPKRLIYAASRLQSGVPSRFSGSGSGTEFTLTISSLQPEDFATYYCLQHNNYPRTFGQGTEVEIIR
[3]
  binding site on IGF-IR (competition between antibodies): bind to sites on IGF-IR that are different
[2]
  Kd: 0.641 nM

B3: 2.12.1: human IgG2κ monoclonal antibody specific for IGF-IR from hybridoma 2.12.1 (ATCC PTA-2792) (antibody)
heavy: QAQLVESGGGLVKPGGSLRLSCAASGFTFSDYYMSWIRQAPGKGLEWVSYISSSGSTRDYADSVKGRFTISRDNAKNSLYLQMNSLRAEDTAVYYCVRDGVETTFYYYYYGMDVWGQGTTVTVSSASTKGPSVFPLAPCSRSTSESTAALGCLVKDYFPEPVTVSWNSGALTSGVHTFPAVLQSSGLYSLSSVVTVPSSNFGTQTYTCNVDHKPSNTKVDKTVERKCCVECPPCPAPPVAGPSVFLFPPKPKDTLMISRTPEVTCVVVDVSHEDPEVQFNWYVDGVEVHNAKTKPREEQFNSTFRVVSVLTVVHQDWLNGKEYKCKVSNKGLPAPIEKTISKTKGQPREPQVYTLPPSREEMTKNQVSLTCLVKGFYPSDIAVEWESNGQPENNYKTTPPMLDSDGSFFLYSKLTVDKSRWQQGNVFSCSVMHEALHNHYTQKSLSLSPGK
light: DIQMTQSPSSLSASVGDRVTFTCRASQDIRRDLGWYQQKPGKAPKRLIYAASRLQSGVPSRFSGSGSGTEFTLTISSLQPEDFATYYCLQHNNYPRTFGQGTEVEIIRTVAAPSVFIFPPSDEQLKSGTASVVCLLNNFYPREAKVQWKVDNALQSGNSQESVTEQDSKDSTYSLSSTLTLSKADYEKHKVYACEVTHQGLSSPVTKSFNRGEC
[4]
  binding to marmoset IGF-IR: not
[5]
  binding to rabbit IGF-IR: not
[6]
  binding to canine IGF-IR: not
[7]
  binding to guinea pig IGF-IR: not
[8]
  binding to Rhesus IGF-IR: able to bind
[2]
  Kd: 7.37 nM
[9]
  binding to human IGF-IR: able to bind
[10]
  binding to COS7 IGF-IR: able to bind
